In the supplement of paper PMC10266784:

B1: library; numbered along this chain (parent)
chain: MAAAAAAAAEQQSSNGPVKKSMREKAVERRSVNKEHNSNFKAGYIPIDEDRLHKTGLRGRKGNLAICVIILLFILAVINLIITLVIWAVIRIGPNGCDSMEFHESGLLRFKQVSDMGVIHPLYKSTVGGRRNENLVITGNNQPIVFQQGTTKLSVENNKTSITSDIGMQFFDPRTQNILFSTDYETHEFHLPSGVKSLNVQKASTERITSNATSDLNIKVDGRAIVRGNEGVFIMGKTIEFHMGGNMELKAENSIILNGSVMVSTTRLPSSSSGDQLGSGDWVRYKLCMCADGTLFKVQVTSQNMGCQISDNPCGNTH

Variants of: B1
Assay: SGCB cell-surface expression functional score (HA stain, bin4 vs bin1, normalised to synonymous) (log10 ratio); higher = more cell-surface SGCB (functional)
Method in brief: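 Sorting and sequencing yield the functional score, defined as the log ratio of a variant's highest-bin frequency to its lowest-bin frequency, with the median taken over codons and replicate transductions. The libraries, codon-saturation sets of HA-tagged, YFP-fused human beta-sarcoglycan, went into HEK293 cells stably carrying alpha-, gamma- and delta-sarcoglycan by duplicate lentiviral transduction at MOI <0.1. Cells were stained on ice with Alexa Fluor 647 anti-HA, fixed and split into four 5% intensity bins, and synonymous variants were scaled per section to mean 0, SD 0.5.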

SGCB cell-surface expression functional score (log10): each site, then its substitutions
I74: F -0.25, P -0.18, G 0.2, Y -0.07, M -0.6, T -0.02, H 0.05, S -0.05, L 0.44, C 0.07, W 0.64, D -0.26, K 0.07, N 0.04, E 0.75, A 0, V -0.01, Q 0, R -1.42
L72: V 0.27, F 0.07, P -0.11, S -0.07, E -0.02, K -0.18, A -0.23, T 0.45, D -0.14, W 0.28, Q -0.21, G 0.44, N -0.44, Y -0.04, I 0.41, R -0.09, M 0.13, C 0.42, H -0.05
L75: M 0.77, E -0.08, F 0.18, C -0.06, S 0.09, N -0.4, A -0.22, D -0.31, W 0.39, I 0.09, R -0.32, G -0.34, Q -0.18, T 0.27, K 0.2, Y -0.25, H 0.2, P 0, V -0.01
V68: G 0.24, H -0.35, A -0.01, N 0.03, T 0.29, C 0.91, E -0.1, M -0.35, R 0.06, D -0.25, I 0.05, P 0, K 0, F 0.55, S 0.36, L -0.04, Y -0.25, W 0.12, Q -0.15
I69: K -0.04, Q 0.03, M 0.22, A -0.17, H 0.03, E 0.15, D -0.11, F 0.52, P 0.36, N 0.62, R 0.11, V -0.05, W 0.3, T -0.01, G 0.2, Y 0.41, C 0.05, S 0.09, L 0.2
I81: D 0.12, A 0.13, N 0.04, K -0.06, V -0.03, S -0.14, C -0.06, T -0.23, W -0.38, Q 0.03, R -0.73, Y -0.45, F -0.08, H 0.45, E 0.31, P 0.12, L 0.1, M -0.08, G 0
L80: W 1.23, Q -0.24, N 0.12, E -0.1, G 0.19, M 0.32, C 0.66, A 0.19, F -0.22, P -0.3, S 0.2, T 0.42, R -0.03, H -0.14, I -0.01, D -0.2, V 0.26, Y 0.27, K -0.07
V85: F -0.43, G 0.11, D -0.21, I -0.18, K 0.01, E 0.35, L 0.24, A 0.3, H -0.11, C -0.21
I78: M -0.34, C -0.19, P -0.22, N 0.19, V 0, W 0.33, T -0.02, Q -0.47, K 0.05, G -0.04, R -0.54, D -0.1, E -0.45, F -0.56, Y -0.68, H 0.1, S -0.22, A 0.15, L -0.05
A76: S 0.05, N 0.08, H -0.07, E 0.02, I 0.22, C 0.13, T -0.35, F 0.33, P -0.1, Y 0.25, Q 0.3, D -0.4, K -0.81, M -0.23, W 0.14, L 0.08, R -0.35, G -0.2, V 0
C67: W 0.43, Y 0.04
N79: L -0.15, I -0.01, P 0, C 0.15, W -1.05, S -0.15, H -0.33, G 0.06, K -0.4, M -0.67, Y -0.74, A 0.21, D -0.24, T -0.23, V 0, F -0.85, Q 0.29, R -0.8, E 0.06
L84: F -0.57, V 0.24, S 0.09, M 0.1, N -0.44, K 0.18, G 0.24, T 0.17, D -0.05, A 0, Q 0.78, I 0.01, W 0.4, P 0.02, E 0.26, R 0.08, H -0.4, Y -0.41, C -0.21
F73: L 0.03, D 0.36, K 0.54, E 0.42, A 0.13, M -0.01, H 0.54, I -0.11, G 0.22, P 0.07, T -0.22, S -0.15, Q 0.6, V -0.23, C 0.34, N 0.47, Y 0.84, R -0.59
T83: M 0.14, C -0.51, E -0.18, V -0.11, W -0.91, R -0.49, G 0.04, I 0.05, N 0.2, P -0.3, L 0.1, S -0.2, H -0.43, Q 0.46, A -0.17, Y -0.43, D -0.02, K -0.33, F -0.77
V77: W -0.2, E -0.04, N -0.21, L -0.16, P -0.24, Q 0.33, R -0.37, K -0.21, G -0.14, A -0.12, F 0.04, D 0.07, S -0.06, H -0.48, T -0.07, M 0.2, C -0.11, I -0.12, Y -0.22
I82: S -0.18, L 0.07, D -0.85, R -0.66, N -0.69, H 0.12, Q 0.28, A 0.03, T -0.05, M -0.24, V 0.04, F 0.01, G -0.2, C 0.11, E -0.49, P 0.22, W -1.15, K 0.1, Y -0.15
L71: A 0.26, H 0.06, G 0.23, N 0.19, W 0.61, T 0.07, C -0.37, K 0.36, E 0.1, F -0.14, Q 0.12, P -0.04, M 0.01, Y -0.5, S 0.06, V 0.22, I -0.45, D -0.08, R -0.37
I70: P 0.16, Y -0.14, A 0.41, D -0.14, C -0.3, N 0.07, S 0.36, V 0.53, G 0.35, E -0.22, H -0.21, T -0.22, F -0.2, W 1.07, M 0.77, Q 0.06, K 0.19, L -0.1, R -0.16
